This note sets out measurements from patent US9657061B2, “Hydrochloride salt of peptide and its use in combination with other peptides for immunotherapy” (Circassia Limited, priority 2012, dated 2017).

Where no end group is shown, it is not given here.

Data set [1] can be described thus: Stability of salts of MLA01 on storage: purity by HPLC. It is filed as physicochemical. The note with it: for course of purity over the 4 week test period (in words): −20° C., 5° C., 25° C./60% RH, 40° C./75% RH. On the procedure: (§1) The stability of MLA01 trifluoroacetate, MLA01 acetate and MLA01 hydrochloride when stored in an inert container over a four week period under different storage conditions was tested. The specific storage conditions evaluated are set out in Table 1.
(§2) Samples of each MLA01 salt were stored in inert glass containers with polypropylene twist-off caps. The samples were stored and removed at various time points for testing according to the schedule in Table 2, where X denotes removal of a sample for testing.
The purity of each sample was tested by HPLC. Purity was measured as area-percent, and the results are set out in Tables 3A to 3C below (where “-” denotes test not performed).

Data set [2] can be described thus: Stability of salts of MLA01 on storage: levels of three specific impurities (RRT 0.978, 1.072, 1.099). The class given is physicochemical. On the procedure:
as §1, §2
The levels of three specific impurities with relative retention times (RRTs) of 0.978, 1.072 and 1.099 were also measured. The impurity with an RRT of 0.978 is the impurity formed by cleavage of the terminal Cys-Pro residues from the MLA01 peptide. The impurity with an RRT of 1.072 is the cysteine sulfinic acid impurity of the MLA01 peptide. The impurity with an RRT of 1.099 is the dimer of the MLA01 peptide. The values are set out in Tables 4A to 4C below (where “<” denotes less than 0.1%).

“CPAVKRDVDLFLT [MLA01 acetate] (also: acetate salt)”: the “purity (HPLC)” value was 82.7 area-percent in data set [1] (storage 5° C., 2 weeks); 84.2 area-percent in data set [1] (storage 5° C., 4 weeks); 75.6 area-percent in data set [1] (storage 25° C./60% RH, 2 weeks); 67.2 area-percent in data set [1] (storage 25° C./60% RH, 4 weeks); 54.0 area-percent in data set [1] (storage 40° C./75% RH, 2 weeks); 39.4 area-percent in data set [1] (storage 40° C./75% RH, 4 weeks). For the same sequence, the “purity (HPLC)” value came to 90.6 area-percent in data set [1] (storage −20° C., 0 weeks); 84.5 area-percent in data set [1] (storage −20° C., 2 weeks); 88.1 area-percent in data set [1] (storage −20° C., 4 weeks). In addition, the “course of purity over the 4 week test period (in words)” value in data set [1] was “degraded under all conditions tested”. Besides, the “impurity RRT 0.978 (cleavage of the terminal Cys-Pro residues)” value in data set [2] (0 weeks, −20° C.) is 2.0%; in data set [2] (4 weeks, 40° C./75% RH) it was 17.1%; in data set [2] (4 weeks, −20° C.), 2.3%. The “impurity RRT 1.072 (cysteine sulfinic acid impurity)” value in data set [2] (0 weeks, −20° C.) worked out at 2.5%; in data set [2] (4 weeks, 40° C./75% RH) it was 5.9%; in data set [2] (4 weeks, −20° C.) it was 2.8%. Moreover, the “impurity RRT 1.099 (dimer of the MLA01 peptide)” value was determined as 1.6% in data set [2] (0 weeks, −20° C.); 12.8% in data set [2] (4 weeks, 40° C./75% RH); 2.5% in data set [2] (4 weeks, −20° C.).
For “CPAVKRDVDLFLT [MLA01 hydrochloride] (also: hydrochloride salt)”, the “stability compared with other salt forms (in words)” value in data set [1] (4 week storage, all conditions tested) is recorded as “more stable than MLA01 acetate or MLA01 trifluoroacetate”. The “purity (HPLC)” value in data set [1] (storage 5° C., 2 weeks) amounted to 94.0 area-percent; in data set [1] (storage 5° C., 4 weeks), 95.7 area-percent; in data set [1] (storage 25° C./60% RH, 2 weeks), 94.3 area-percent; in data set [1] (storage 25° C./60% RH, 4 weeks), 95.5 area-percent; in data set [1] (storage 40° C./75% RH, 2 weeks), 92.4 area-percent; in data set [1] (storage 40° C./75% RH, 4 weeks) it was 95.3 area-percent. The “purity (HPLC)” value in data set [1] (storage −20° C., 0 weeks) was 96.6 area-percent; in data set [1] (storage −20° C., 2 weeks) it was 94.0 area-percent; in data set [1] (storage −20° C., 4 weeks), 95.6 area-percent. For the same sequence, the “course of purity over the 4 week test period (in words)” value in data set [1] is given as “stayed constant”. For the same sequence, the “impurity RRT 0.978 (cleavage of the terminal Cys-Pro residues)” value is reported as under 0.1% in data set [2] (0 weeks, −20° C.); 0.2% in data set [2] (4 weeks, 40° C./75% RH); 0.1% in data set [2] (4 weeks, −20° C.). The “impurity RRT 1.072 (cysteine sulfinic acid impurity)” value in data set [2] (0 weeks, −20° C.) is recorded as 0.1%; in data set [2] (4 weeks, 40° C./75% RH), 0.2%; in data set [2] (4 weeks, −20° C.), under 0.1%. For the same sequence, the “impurity RRT 1.099 (dimer of the MLA01 peptide)” value in data set [2] (0 weeks, −20° C.) was 0.34%; in data set [2] (4 weeks, 40° C./75% RH), 0.6%; in data set [2] (4 weeks, −20° C.), 0.7%.
“CPAVKRDVDLFLT [MLA01 trifluoroacetate] (also: trifluoroacetate salt)”: the “purity (HPLC)” value in data set [1] (storage 5° C., 2 weeks) was found to be 95.6 area-percent; in data set [1] (storage 5° C., 4 weeks), 95.2 area-percent; in data set [1] (storage 25° C./60% RH, 2 weeks) it was 94.4 area-percent; in data set [1] (storage 25° C./60% RH, 4 weeks), 94.5 area-percent; in data set [1] (storage 40° C./75% RH, 2 weeks) it was 91.0 area-percent; in data set [1] (storage 40° C./75% RH, 4 weeks), 89.4 area-percent. For the same sequence, the “purity (HPLC)” value in data set [1] (storage −20° C., 0 weeks) was 96.7 area-percent; in data set [1] (storage −20° C., 2 weeks), 95.9 area-percent; in data set [1] (storage −20° C., 4 weeks), 95.8 area-percent. The “course of purity over the 4 week test period (in words)” value in data set [1] is reported as “degraded at higher temperature/humidity”. The “impurity RRT 0.978 (cleavage of the terminal Cys-Pro residues)” value was under 0.1% in data set [2] (0 weeks, −20° C.); 0.9% in data set [2] (4 weeks, 40° C./75% RH); under 0.1% in data set [2] (4 weeks, −20° C.). Moreover, the “impurity RRT 1.072 (cysteine sulfinic acid impurity)” value in data set [2] (0 weeks, −20° C.) is given as under 0.1%; in data set [2] (4 weeks, 40° C./75% RH) it was 0.2%; in data set [2] (4 weeks, −20° C.), under 0.1%. Moreover, the “impurity RRT 1.099 (dimer of the MLA01 peptide)” value came out at 0.3% in data set [2] (0 weeks, −20° C.); 2.8% in data set [2] (4 weeks, 40° C./75% RH); 0.6% in data set [2] (4 weeks, −20° C.).
